{"source": "patent US6521741", "molecular_target": "TLHL"}
{"protein": "tobacco etch virus (TEV) protease (protein) GESLFKGPRDYNPISSTICHLTNESDGHTTSLYGIGFGPFIITNKHLFRRNNGTLLVQSLHGVFKVKNTTTLQQHLIDGRDMIIIRMPKDFPPFPQKLKFREPQREERICLVTTNFQTKSMSSMVSDTSCTFPSSDGIFWKHWIQTKDGQCGSPLVSTRDGFIVGIHSASNFTNTNNYFTSVPKNFMELLTNQEAQQWVSGWRLNADSVLWGGHKVFMSKPEEPFQPVKEATQLMNELVYSQ", "values": [{"measurement": "proteolytic cleavage seen on SDS-PAGE", "value": "Incubation of TLHL with the TEV protease in PBS at room temperature or at 4 °C produced therefore, a 19kD band on an SDS-PAGE gel"}]}
